# Measurements taken from patent US20250108100A1, “C-TERMINAL FRAGMENT OF APOLIPOPROTEIN E AND APPLICATION THEREOF IN INHIBITING y-SECRETASE ACTIVITY” (SYNPHATEC (SHANGHAI) BIOPHARMACEUTICAL TECHNOLOGY CO., LTD., priority 2022, published 2025).
# “Also recorded” adds a separate entry of the source.
# System: γ-secretase (PS1, PS2) knockout HEK 293T cells
# Assay: PS1 KO, PS2 KO and PS1/2 dKO HEK 293T cell lines: α-CTF and Aβ40
# Format: cell-based, human
# Description: • a) A plasmid expressing the target protein in mammalian cells was constructed, and the protein expression promoter is CAG. • b) The target protein was expressed in HEK 293T cell line. Cells were subcultured one day before transfection, and transfection was performed when the degree of cell adhesion reached 70%-80%. The transfection reagent was lipofectamine2000 (ThermoFisher). • c) 4-6 hours post transfection, the medium were replaced with fresh cell culture medium. • d) 36-48 hours post transfection, the cells were lysed (10% 1M tris-HCl (pH=6.8), 4% SDS, 20% glycerol, 0.01% bromophenol blue), and the protein samples were collected and used for Western blot or stored in a −80° C. freezer. • e) Polyacrylamide gel electrophoresis. Before protein loading, the protein was boiled at 98° C. for 10 min, and then centrifuged at 12000 rpm for 10 min. Electrophoresis: 80V for the upper stacking gel; 120V for the lower separating gel. • f) Protein transfer. The filter paper was soaked in the electrophoresis solution before use, and the PVDF membrane was put in methanol for 10s to activate, and the gel after electrophoresis was taken out from the electrophoresis tank, put in the order of filter paper—PVD membrane—gel-filter paper from bottom to top, and they were put into the transfer instrument, with transferring in constant current at 0.1 A for 70 min. • g) Blocking and antibody incubation: the transferred PVDF membrane was placed in 5% BSA/TBST blocking solution, and blocked on a shaker at room temperature for 1 hour. The primary antibody was used to incubate at 4° C. overnight on a shaker (12-16 h); 1×TBST was used to wash three times, once every 10 minutes; the secondary antibody was used to incubate, shaked at room temperature for 1-2 h; 1×TBST was used to wash three times, once every 10 minutes. • h) Imaging by development: development was performed with ECL chemiluminescence hypersensitive chromogenic reagent.
# The experiment was performed according to the standard procedure in the ELISA analysis kit of Invitrogen Company. • a) The target protein was expressed in HEK 293T cell line. Cells were subcultured one day before transfection, and transfection was performed when the degree of cell adhesion reached 70%-80%. The transfection reagent was lipofectamine2000 (ThermoFisher). • b) 4-6 hours post transfection, medium were replaced with fresh cell culture medium. • c) 36-48 hours post transfection, the cell culture medium was collected, and then the ELISA process was performed or the cell culture medium was frozen in a −80° C. refrigerator. • d) 50 μl of standard samples and experimental samples were added to each well of the 96-well plate. • e) 50 μl of human-derived Aβ40 or Aβ42 or mouse-derived Aβ40 detection antibody was added to each well of the 96-well plate. • f) The above samples were shaken gently and placed at room temperature for 3 hours. • g) The liquid in the well were removed, and the plate was washed 4 times with 1× wash buffer. • h) 100 μl of the buffer containing 1× anti-Rabbit IgG HRP was added. • i) The plate was shaken gently and placed at room temperature for […]. • j) The liquid in the well were removed, and the well was washed 4 times with 1× wash buffer. • k) 100 μl of Stabilized Chromogen was added to each well, and the plate was placed in the dark for 30 minutes at room temperature. • l) 100 μl of Stop Solution was added to each well. • m) The absorbance at 450 nm was measured with a microplate reader. 2.4 qRT-PCR […]
molecule,measurement,setting,value
"ApoE CT: C-terminal fragment of ApoE, positions 216-299 of SEQ ID NO: 12; SEQ ID NO: 33 (protein) ARMEEMGSRTRDRLDEVKEQVAEVRAKLEEQAQQIRLQAEAFQARLKSWFEPLVEDMQRQWAGLVEKVQAAVGTSAAPVPSDNH",Aβ40 in PS1/2 dKO cells supplemented with PS2,ELISA,can reduce Aβ40; also recorded: significantly reduced Aβ40
same,α-CTF in PS1/2 dKO cells,PS1 and PS2 double knockout HEK 293T cells,does not further increase α-CTF; also recorded: did not further increase α-CTF levels
same,α-CTF in PS1 KO cells,PS1 single knockout HEK 293T cells,still able to increase α-CTF
same,α-CTF in PS2 KO cells,PS2 single knockout HEK 293T cells,still able to increase α-CTF
same,α-CTF in PS1/2 dKO cells supplemented with PS1 or PS2,rescued expression of PS1 or PS2,can significantly increase α-CTF; also recorded: again significantly increased α-CTF
